{"source": "paper PMC6145145", "binders": {"B1": {"name": "telomeric primer (TTAGGG)3 (ssDNA)", "DNA": "TTAGGGTTAGGGTTAGGG"}}, "key": {"POT1-K90E": {"target": "T1, POT1-K90E (human, UniProt Q9NUX5 1-634, K90E)", "T1 sequence": "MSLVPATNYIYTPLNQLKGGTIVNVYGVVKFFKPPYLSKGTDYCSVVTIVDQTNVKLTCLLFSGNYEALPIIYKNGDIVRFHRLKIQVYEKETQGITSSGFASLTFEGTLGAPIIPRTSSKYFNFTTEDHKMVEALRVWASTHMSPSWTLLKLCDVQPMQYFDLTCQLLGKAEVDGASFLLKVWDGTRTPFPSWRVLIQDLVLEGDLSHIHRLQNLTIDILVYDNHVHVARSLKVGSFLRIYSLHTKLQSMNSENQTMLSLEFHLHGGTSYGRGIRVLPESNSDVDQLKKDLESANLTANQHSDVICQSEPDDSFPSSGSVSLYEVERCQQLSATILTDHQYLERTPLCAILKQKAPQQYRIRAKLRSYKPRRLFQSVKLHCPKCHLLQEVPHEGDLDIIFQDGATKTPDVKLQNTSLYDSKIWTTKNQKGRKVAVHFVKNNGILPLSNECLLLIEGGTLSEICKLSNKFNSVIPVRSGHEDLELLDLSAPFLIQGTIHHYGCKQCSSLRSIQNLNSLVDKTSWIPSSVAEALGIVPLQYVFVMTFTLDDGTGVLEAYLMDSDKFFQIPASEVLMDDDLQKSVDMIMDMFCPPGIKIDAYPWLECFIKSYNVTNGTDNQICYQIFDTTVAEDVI", "test": "EMSA"}, "POT1 WT": {"target": "T2, POT1 WT (human, UniProt Q9NUX5 1-634)", "T2 sequence": "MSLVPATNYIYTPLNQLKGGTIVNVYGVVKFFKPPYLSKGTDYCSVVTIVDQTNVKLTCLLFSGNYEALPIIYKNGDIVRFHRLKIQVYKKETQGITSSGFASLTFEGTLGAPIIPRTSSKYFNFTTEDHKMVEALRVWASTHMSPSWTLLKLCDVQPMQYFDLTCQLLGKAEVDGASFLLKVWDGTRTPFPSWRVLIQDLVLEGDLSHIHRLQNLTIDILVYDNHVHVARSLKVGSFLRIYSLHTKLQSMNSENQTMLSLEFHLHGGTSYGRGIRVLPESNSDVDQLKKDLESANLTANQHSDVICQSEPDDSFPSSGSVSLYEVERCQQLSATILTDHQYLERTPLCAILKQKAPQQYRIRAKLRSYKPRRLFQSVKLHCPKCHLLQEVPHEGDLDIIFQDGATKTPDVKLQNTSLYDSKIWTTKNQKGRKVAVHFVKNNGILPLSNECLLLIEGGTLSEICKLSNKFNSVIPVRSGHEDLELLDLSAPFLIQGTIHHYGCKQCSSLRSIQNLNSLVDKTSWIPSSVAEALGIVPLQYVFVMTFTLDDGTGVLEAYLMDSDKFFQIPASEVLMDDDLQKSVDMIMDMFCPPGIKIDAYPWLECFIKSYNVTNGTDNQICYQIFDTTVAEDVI", "test": "EMSA"}}}
{"binder": "B1", "values": [{"measurement": "binding result", "setting": "POT1-K90E", "value": "binds"}, {"measurement": "binding result", "setting": "POT1 WT", "value": "binds"}]}
